In publication PMC7076015 (2020):

Molecular target: MBP-KPNA7(P339A) (human, UniProt A9QM74 1-516, P339A)

Work on RGGNVGGKRKADGYNQPDSKRRQTN (domain or fragment) [GST-GFP-hnRNP R bipartite NLS] yielded a Kd of roughly 157 nM.
